Where a chain is given by its changes, count along the chain named. Names and notes keep the numbering of the source.
B1: 6xHis-tagged Mto2 (natural protein, S. pombe, UniProt Q9USP7 1-397, looked up)
chain: MSEHNYQSDREVAEDPFLNYEASANQLSSNSRESTPRGSPWRAGMRSASLMTEPLEDSMYSDNNYLDNGVSFTKDENPLYSPSWPSLADANVNSMKSNNAIQEHKAAKFVSEKSLEKVSTADNNLVLQELENLRERLNQVELQLSERPSSYLGYHNNLSPYRSPNSYPSLLPSTHSPHSPAPLSTMQTALMRLRTYHPSPIILKPVEQAVNHAITLVNTSPSSVVDALCRSLAELCLGLVQEAIDASILSQQESSNSLDLVRHTPPLNYTSSVDSSPQRMASDSYGRPSLHLNDPFPSVDLQSNELSHHNVRTTLFSDDSRFHSKIHTHSTPPSQMYSAASHFRYRSDPSTRHVSNSTNKSSLHPSPTSLRVAHPIIPQRASPASQSFPSLQDTPSP
notes: Forms a range of multimers; Construct described in Leong et al., 2019; also called wild-type Mto2; 6xHis-Mto2; source: Sf9 (MultiBac baculovirus), purified (nickel chelate, Superose 6 SEC); also Sf9 co-infected with GST-Mto1[bonsai] virus, in lysate
B2: Mto2 Near-N-terminal Domain (NND; Mto2 residues 78-153) (domain or fragment, S. pombe, UniProt Q9USP7 78-153, looked up)
chain: PLYSPSWPSLADANVNSMKSNNAIQEHKAAKFVSEKSLEKVSTADNNLVLQELENLRERLNQVELQLSERPSSYLG
notes: Mto2, S. pombe, residues 78-153 (NND); Weak homodimer that dissociates upon dilution; also called wild-type NND; source: E. coli BL21(DE3) pRIL, purified (glutathione-sepharose, TEV cleavage, SEC); not shown: GST, N-terminal, cleaved
B3: NND-N123C (domain or fragment, S. pombe, UniProt Q9USP7 78-153, looked up)
chain: B2 chain with N46C
notes: Mto2, S. pombe, residues 78-153 (NND) with N123C; Disulfide-linked dimer under non-reducing conditions; source: E. coli BL21(DE3) pRIL, purified (glutathione-sepharose, TEV cleavage, SEC); not shown: GST, N-terminal, cleaved
B4: NND-R147C (domain or fragment, S. pombe, UniProt Q9USP7 78-153, looked up)
chain: B2 chain with R70C
notes: Mto2, S. pombe, residues 78-153 (NND) with R147C; Disulfide-linked dimer under non-reducing conditions; source: E. coli BL21(DE3) pRIL, purified (glutathione-sepharose, TEV cleavage, SEC); not shown: GST, N-terminal, cleaved
B5: Mto2 Twin-Cysteine Domain (TCD; Mto2 residues 180-265) (domain or fragment, S. pombe, UniProt Q9USP7 180-265, looked up)
chain: PAPLSTMQTALMRLRTYHPSPIILKPVEQAVNHAITLVNTSPSSVVDALCRSLAELCLGLVQEAIDASILSQQESSNSLDLVRHTP
notes: Mto2, S. pombe, residues 180-265 (TCD); Residues 180-250 (chain A) and 180-248 (chain B) are built in the structure; source: E. coli BL21(DE3) pRIL, purified (glutathione-sepharose, TEV cleavage, SEC); selenomethionine-labelled protein from B834(DE3); not shown: GST, N-terminal, cleaved
B6: Mto2, untagged, co-expressed with 6xHis-Mto1[bonsai] (natural protein, S. pombe, UniProt Q9USP7 1-397, looked up)
chain: B1 chain
notes: Mto2, S. pombe; for coexpression the tag was present only on Mto1[bonsai]; Construct described in Leong et al., 2019; also called Mto2 (of the Mto1/2[bonsai] complex); source: Sf9 (MultiBac baculovirus), co-expressed and co-purified with 6xHis-Mto1[bonsai]
B7: Mto1/2[bonsai] complex (complex, S. pombe)
chain 1: TTDDEQLSPVLTANQGFQSQEQYEEDSYNNYDYTSDPSSPNYISSSLDQLPHLDDEDDLQLTPIKEERNYLHSQDAPTTNALSKKISDILIPASAMKDLKDRKNALAKEFEESQPGSSLTLKEQANVIDNLRKEVFGLKLKCYFLYDQLNKFHDQEVQDIMKQNIDLKTLTMELQRAVAGYEKKISGLESRIKPDQSFNLSTPSPAPSNLITLQSRYSQALSELETTKRAFAALRKEKSKKTNYSVGAYNEDRNVLSNMLDNERREKEALLQELESLRVQLSKKVPMPAKNTDERVIETLQRSNELLRMDISMQNEALLLRKQENDRLVKQVEELTVALNSGKMNAIVEAESSKNELWDSMMVSRMKTQEQSIELTRLYKQLQDIEEDYENKLMRMEQQWREDVDQLQEYVEEITQELQ
chain 2: B1 chain
notes: Mto1, S. pombe, residues 131-549 of full-length Mto1 (Mto1[bonsai]); Mto2, S. pombe, untagged in the co-expression; Near-equal stoichiometry of the two chains; a range of multimer sizes, so no copy numbers; also called 6xHis-tagged Mto1/2[bonsai]; recombinant Mto1/2[bonsai]; source: Sf9 (MultiBac baculovirus), co-expressed, purified (nickel chelate, Superose 6 SEC); not shown: His6, N-terminal, …
B8: 6xHis-TEV-Mto1[bonsai] (Mto1 residues 131-549) (domain or fragment, S. pombe, UniProt O94488 131-549, looked up)
chain: B7 chain 1
notes: Mto1, S. pombe CM1 protein, residues 131-549 of full-length Mto1 (1115 residues); a TEV site lies between the 6xHis tag and Mto1; Dimeric by SEC-MALS; No TEV cleavage is described; also called 6xHis-tagged Mto1[bonsai]; source: Sf9 (MultiBac baculovirus), purified (nickel chelate, Superose 6 SEC); expressed alone or co-expressed with untagged Mto2; not shown: His6, N-terminal, kept

What was measured:
[1] = target: the molecule itself; assay: SEC; SEC-dilution analysis, Superose 6 10/300, 4°C, 100 µL loaded; undiluted ∼9 mg/mL (co-purified Mto1/2[bonsai]), ∼1.5 mg/mL (Mto1[bonsai]), ∼2.5 mg/mL (Mto2), and 10X dilution; fractions by SDS-PAGE and western blot
[2] = target: the molecule itself; assay: SEC-MALS; Superdex 75 10/300 for protein fragments; NND injected at ∼5 mg/mL (600 µM) and a dilution series, TCD at ∼10 mg/mL (1000 µM) and a dilution series
[3] = target: the molecule itself; assay: ITC; dilution series, 25°C, iTC200; 100 µM NND injected (20 x 2 µL) into 50 mM Tris-HCl pH 8.0, 150 mM NaCl, 2 mM EDTA; dimer dissociation model; dimer to monomers
[4] = target: the molecule itself; assay: cross-linking; intermolecular disulfide between engineered cysteines; SDS-PAGE with and without β-mercaptoethanol
[5] = target: the molecule itself; assay: cross-linking; EDC/Sulfo-NHS zero-length cross-linking with mass spectrometry (CLMS) of co-purified Mto1/2[bonsai] complex; phosphate pH 7.5, 300 mM NaCl, 5% glycerol, 2 h at 18°C
[6] = target: B8; assay: SEC; SEC-dilution analysis, Superose 6 10/300, 4°C, 100 µL loaded; undiluted ∼9 mg/mL (co-purified Mto1/2[bonsai]), ∼1.5 mg/mL (Mto1[bonsai]), ∼2.5 mg/mL (Mto2), and 10X dilution; fractions by SDS-PAGE and western blot; conditions: both partners purified
[7] = target: the molecule itself; assay: SEC-MALS; Superose 6 10/300 for full-length proteins and complexes; injected at ∼4.5 mg/mL (Mto1/2[bonsai]), ∼1.3 mg/mL (Mto1[bonsai]), ∼1.6 mg/mL (Mto2), 1.4 mg/mL (Mto2-134A136A), 1.3 mg/mL (Mto2-134AAA)

B1
binding result [1]: binds

B2
stoichiometry N [2]: 2 | Kd [3]: 15 µM

B3
binding result [4]: binds

B4
binding result [4]: binds

B5
stoichiometry N [2]: 2

B6
binding result [5]: binds | stoichiometry N [6]: ~1

B7
binding result [7]: binds

B8
stoichiometry N [7]: 2

Reference: doi:10.1101/754457, “Architecture of the Mto1/2 microtubule nucleation complex” (bioRxiv, 2019)
